# Test system: K4 kissing-loop RNA reporter
# Test: apparent KD of K4 kissing-loop reporter; higher = weaker reporter binding
# Details: Eterna round: R107; input ligand: theophylline 20 uM
# Experimental: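 RNA-MaP round R107: designed RNA switches with theophylline, tryptophan, arginine or FMN aptamers are transcribed on-chip within common flanks. They are titrated with a labelled K4 kissing-loop RNA reporter in RNA-MaP buffer (100 mM Tris pH 7.5, 80 mM KCl, 4 mM MgCl2), without ligand or with the indicated ligand. Median apparent KD per design.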
# 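Further: bound reporter read as fluorescence of individual clusters on recovered sequencing chips by microscopy, with normalized cluster intensities fitted with a binding model.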
row,Sequence,apparent KD of K4 kissing-loop reporter [µM]
1,AUGCGCGCGGCGGCCGCCACUCGCAUGAGAGUGAUGUUCUCGCCGUGCCCGCAAGGGUGCGGUGUGAGGACCGGGCCGGGCUGCG [#2 Same State - Tryptophan B Attempt #19 (HarryS)],0.154
2,GCUGCCAUGGCAGGAUAUAUAAAUGCUGAGUGAUGUUCUGCAUCAUAUGUCCCUGACCGCGGCGGUGUAGAAGGGCCAUGGCAGC,0.0971
3,UCCUGCAAUCAACCACGAAAGUGGUUCGAUACCAGAGUCGAAAGACUCCCUUGGCAGCGAGUGAUGUUCGAGCAGGUAAAAUAAA,0.646
4,GACAAUUCCGCUUCCGAGCAUACUUGACUGAAGGAUAUCAUCGUGUUGAGAAGGUCAGUAACAGAGAGUGAUGUUCUUUGAGGUC [theeternabot_sameState_KL_FMN_A_19],0.207
5,AAGUAGCUCUCGGCCGCCACUCCUCAGUGAUGUUGAGAUUUUUUCUGCCAAUUGGCGUUUUUUUAGAGGACCGGGAGAGCUACAA [AK1 SS Tryptophan B],0.291
6,UGGAGUUGACGAAAAGUCAACUCCUGAGAAGGAGCGGACGAAAGUCCAGGUAGGUCGCUCACUACCAGUGAUGUUGGUACUUAAA [#OpenEnded 4],0.228
7,GGGCAUGAUACGAUAAAAUAGUGGAGAGAUACCAGCGUUUUAGAUCGCCCUUGGCAGCUCUCGAGUGAUGUUCGGGUAGCUCUGA [Onedra],0.114
8,ACAAAAGUGAUGUUUUUGAACGUGCGCGAUACCAGAAAUGUCUUCUUCCCUUGGCAGCGCUAUUACUUGUAAGAAAGUACGUUUC [theeternabot_sameState_KL_Theo_A_17],0.774

# Same assay, conditions: Eterna round: R107; input ligand: tryptophan 2.4 mM
row,Sequence,apparent KD of K4 kissing-loop reporter [µM]
1,GUCUUACUAUAGGAUACCAGCAUGCAAGGAGUGAUGUUCCCGUCAUAUGAGGAGUACCGCUGCCCUUGGCAGCCUCUUGUAAGUU [theeternabot_sameState_KL_Theo_B_1],0.317
2,GGAAUGCUGUAAGGAUAUCUCGGACGGUUACUCCGUUUCUCGCGUGUAAGAAUCUGAGUGAUGUUUAGAGAAGGUACGCUGGUUA [theeternabot_exclusion_KL_FMN_B_21],0.149
3,CGGAUCGCAUCAGGAUAUCUCUCAUCAGUGAUGUUGGUGAAGCGUACGCGAAAGCGUACGCAGAUGAGAGAAGGGAUGCGAUCCG,0.945
4,CAAAUAAAUAUAAUUGAUAAGUGAUGUUGGCGAGGACCGGUACGGCCGCCACUCGAUAUCGGUCCAUUAACCGAGUGAUGUUUGG [Default title],0.0837
5,GCAACAUUGGGAGGAUAUCAUUCUGAGUGAUGUUCAGGGUUCAGCUAACGAAAGUUAGUUGUACCAUGAGAAGGUCUAAUGUUGC [Omei KL FMN B SS A v6],1.15
6,GAGAAUCUAAUUGAUACCAGAGUAAGAACCAGUGAUGUUGGAAGAUUCCCUAAUAAAUAACUCCCUUGGCAGCGGAAGAGAAUAG [Totally accidental 2],0.172
7,GGAUCCACCAGUGAUGUUGGAGAAAACUCUAAGGAUAUGACGAAAGUCAGAAGGUGGUAGACUGGACAAAGUCCGGUAGGAUCCA [FmnA10 U30+A78],0.25
8,UGUGAUGUGUAGUGUUAUGUUUUGAGGGAUACCAGAGUGUUUUUAUUCCCUUGGCAGCUUGAGUGAUGUUUGAUGUUGUUGUUGU [knnumullin],0.187
9,UACAGGGAUAGUGAUGUUAUCCCAUGUGAUACCAGUGCCAUCCAACACCCUUGGCAGCAUACGGGCAGUGAUGUUGUUCUUGGUA [#16 K4 Theophylline A Exclusion],0.0801
10,GCGCGUCAUGUCAGCGGUGACUACGUCGAUACCAGCAGGGAAACCUGCCCUUGGCAGCGACGCGCUGGAGUGAUGUUCCGACAGA [#2 Exclusion - Theophylline A Attempt #5 (HarryS)],0.176
11,GUGCGGCUAGUGAUGUUGGUUGCGUGGGAAGGAGCGCAGAAACAUGCAGGUAGGUCGCCCACACCUCUGAAAGGAGGCUAAUUCA [Bisobi],0.134
12,GUGGCACGAAAGUGCCACGCAUCCUCUGGCUAGGAUAUCUGGAAACAGAGAAGGAGCUCAUGAGUGAUGUUCAUCUAGAGGAUGC,0.947
13,AGUACAAUUGCGGCCGCCACUCAACGCAGAUCAAAGAUCUGCAUUCACUCAGUGAUGUUGAGUGAGAGGACCGGGCAUUUGUACA [Omei KL Tryp B SS B v2],0.164
14,AGAAACUUGUAUACAGGGCAUGCCAGAGAUACCAGUCAAAUGGAAGGCCCUUGGCAGCUCAGGCGAGUGAUGUUCGCAGGCUGAC [Exclusion Theophylline A GF 20],0.105
15,GCAUCCUAUGCAGGAUAUUAGCAUUUGAGUGAUGUUCAGACUAGCGAAAGCUAGUCAAUUGCUGGUUAAGAAGGGCAUAGGAUGC,0.689
16,UUCGGCCUGACGGCCGCCACUUUGGGUAGUGAUGUUACCAACAUUCACCAGAUACAGGUUACUUCAAGGACCGGGUCAGACGGUG [theeternabot_exclusion_KL_Trp_B_45],0.0928

row,Sequence,apparent KD of K4 kissing-loop reporter [µM]
1,AGACUACCACACUGUCAAUAGACAGUGAACUAGGAUAUGCUGAUAAGCAGAAGGAGUGAUGUUCCUUGGUAGUCAAUAAAAUAAU [FmnAX 13 U67],0.289
2,GUCCACACUGCAGGAUAUGGAGAAAUAGCGAGGGAGCUUGGAAGCACGCCUCUGGCAGUGAUGUUGCCAGAAGGGCGGUGCGGCG [Dilazasole],0.0808
3,GGCCGCAAGGCGAGCGCUCCCACUCCGGAAGGAGCGCCCGUAAGGGCAGGUAGGUCGCCGGAGUGAUGUUCCGGUGGAGGGCUCG [#2 Exclusion - Arginine A Attempt #17 (Inspired by Omei)],0.46
4,AGAGUCAGACAAAAGUCUGGCUCAGCCGAAGGAGCGUCCGAAAGGACAGGUAGGUCGCGGUUGCAUGAGUGAUGUUGAUGUUUUU [KL-SSArg-A23],0.5
5,UGCUUUAGAAUACAAGGUAUUUACACUGAUACCAGUCAGUUAAAUGACCCUUGGCAGCAGUGUCAGUGAUGUUGACACAACACAU [Theo A Ex t4],0.164
6,GUAUAUCGAACUGAUACCAGAGAAUAAAGCAGUGAUGUUGCAUAUAUAAAUAAGACUCGACUCCCUUGGCAGCGGGAAGAUAUAC [On purpose 1],0.146
7,UAUUAAUUGUCAGGAUAUCGUAAUCGAGUGAUGUUCGAAUAUCGACGAUAGUCGAUAUUAUUUAUACGAGAAGGGACAUUAUUUA [JR_SSFMNB_Sub004],0.332
8,AGUUCUUGCCGAAGGAGCGAGGCAGAGUGAUGUUCUGCAAAGAGGUCGAAAGACCUCCUGCCUCAGGUAGGUCGCGGCAUGAACA [Omei KL Arginine B Exc A v5],1.26
9,AUGCGCGCGGCGGCCGCCACUCGCAUGAGAGUGAUGUUCUCGCCGUGCCCGCAAGGGUGCGGUGUGAGGACCGGGCCGGGCUGCG [#2 Same State - Tryptophan B Attempt #19 (HarryS)],0.302
10,GCUGCCAUGGCAGGAUAUAUAAAUGCUGAGUGAUGUUCUGCAUCAUAUGUCCCUGACCGCGGCGGUGUAGAAGGGCCAUGGCAGC,0.103
11,UCCUGCAAUCAACCACGAAAGUGGUUCGAUACCAGAGUCGAAAGACUCCCUUGGCAGCGAGUGAUGUUCGAGCAGGUAAAAUAAA,0.602
12,GACAAUUCCGCUUCCGAGCAUACUUGACUGAAGGAUAUCAUCGUGUUGAGAAGGUCAGUAACAGAGAGUGAUGUUCUUUGAGGUC [theeternabot_sameState_KL_FMN_A_19],0.151
13,AAGUAGCUCUCGGCCGCCACUCCUCAGUGAUGUUGAGAUUUUUUCUGCCAAUUGGCGUUUUUUUAGAGGACCGGGAGAGCUACAA [AK1 SS Tryptophan B],0.124
14,UGGAGUUGACGAAAAGUCAACUCCUGAGAAGGAGCGGACGAAAGUCCAGGUAGGUCGCUCACUACCAGUGAUGUUGGUACUUAAA [#OpenEnded 4],0.192
15,GGGCAUGAUACGAUAAAAUAGUGGAGAGAUACCAGCGUUUUAGAUCGCCCUUGGCAGCUCUCGAGUGAUGUUCGGGUAGCUCUGA [Onedra],0.104
16,ACAAAAGUGAUGUUUUUGAACGUGCGCGAUACCAGAAAUGUCUUCUUCCCUUGGCAGCGCUAUUACUUGUAAGAAAGUACGUUUC [theeternabot_sameState_KL_Theo_A_17],0.49

# Reference: the supplement of paper PMC9170038
